Where a chain is given by its changes, count along the chain named.

One assay deals with T1, FcγRIIIa-158F-GST (human, UniProt P08637 17-208).
T1 construct: not shown: GST (glutathione S-transferase) fusion partner
In words: ELISA, FcγRIIIa-158F-GST coated at 4 µg/ml, antibody titrated, HRP-Protein L detection. As to the method:
After washing, antibody reaction was performed for 1 hour at room temperature, and then washed using 50 μl of HRP-Protein L (GenScript, M00098). 50 μl of a 1-Step Ultra TMB-ELISA substrate solution (Thermo Fisher Scientific, 34028) was added to develop color, and then added with 50 μl each of 2 M H₂SO₄ to terminate the reaction. Absorbance was measured using an Epoch microplate spectrophotometer (BioTek).
Background: In an ELISA, binding on a coated surface is turned into a signal by an enzyme label.

In assay [1] the target is T2, cynomolgus monkey FcγRIII-GST (cynomolgus monkey, UniProt Q8SPW2 17-208).
T2 construct: GST fusion form made in Expi293F cells, purified on glutathione resin; not shown: GST fusion partner
T2 sequence (Q8SPW2 17-208): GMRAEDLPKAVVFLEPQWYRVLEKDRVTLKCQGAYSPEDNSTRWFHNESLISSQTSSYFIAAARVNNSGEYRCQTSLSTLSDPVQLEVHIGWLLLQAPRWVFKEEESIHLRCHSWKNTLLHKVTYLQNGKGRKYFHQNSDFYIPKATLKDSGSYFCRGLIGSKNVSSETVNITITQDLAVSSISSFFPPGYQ
In words: ELISA, cynomolgus monkey FcγRIII-GST coated at 4 µg/ml, antibody titrated, HRP-Protein L detection. As to the method:
Specifically, 50 μl of mouse FcγRIV-GST and cynomolgus monkey FcγRIII-GST diluted to 4 μg/ml in 0.05 M Na₂CO₃ pH 9.6 were immobilized on a flat bottom polystyrene high bind 96-well plate (Costar, 3590) for 16 hours at 4° C., respectively, and then blocked with 100 μl of 4% skim milk (GenomicBase, SKI400) at room temperature for 2 hours. […] After washing, antibody reaction was performed for 1 hour at room temperature, and then washed using 50 μl of HRP-Protein L (GenScript, M00098). 50 μl of a 1-Step Ultra TMB-ELISA substrate solution (Thermo Fisher Scientific, 34028) was added to develop color, and then added with 50 μl each of 2 M H₂SO₄ to terminate the reaction. Absorbance was measured using an Epoch microplate spectrophotometer (BioTek).

T1 sequence (P08637 17-208): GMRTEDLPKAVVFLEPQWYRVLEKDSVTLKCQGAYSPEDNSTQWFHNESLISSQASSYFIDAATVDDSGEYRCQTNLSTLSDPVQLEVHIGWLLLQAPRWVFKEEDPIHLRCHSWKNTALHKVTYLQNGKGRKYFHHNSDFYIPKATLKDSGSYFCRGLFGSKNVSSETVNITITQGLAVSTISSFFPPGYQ

B1: rituximab Fc variant RTX-PS101 (antibody, human IgG1, kappa)
heavy: QVQLQQPGAELVKPGASVKMSCKASGYTFTSYNMHWVKQTPGRGLEWIGAIYPGNGDTSYNQKFKGKATLTADKSSSTAYMQLSSLTSEDSAVYYCARSTYYGGDWYFNVWGAGTTVTVSAASTKGPSVFPLAPSSKSTSGGTAALGCLVKDYFPEPVTVSWNSGALTSGVHTFPAVLQSSGLYSLSSVVTVPSSSLGTQTYICNVNHKPSNTKVDKKAEPKSCDKTHTCPPCPAPELLGGPSVFLLPPKIKDTLMISRTPEVTCVVVDVSHEDPEVKFNWYVDGVEVHNAKTKPPEEQYNSTLRVVSILTVLHQDWLNGKEYKCKVSNKALPLPEEKTISKQKGQPREPQVYTLPPSRDELTKNQVSLTCLVKGFYPSDIAVEWESNGQQENNYKTTPPVLDSDGSFFLYSKLTVDKSRWQQGNVFSCSVMHEALHNHYTQKSLSLSPGK
light: QIVLSQSPAILSASPGEKVTMTCRASSSVSYIHWFQQKPGSSPKPWIYATSNLASGVPVRFSGSGSGTSYSLTISRVEAEDAATYYCQQWTSNPPTFGGGTKLEIKRTVAAPSVFIFPPSDEQLKSGTASVVCLLNNFYPREAKVQWKVDNALQSGNSQESVTEQDSKDSTYSLSSTLTLSKADYEKHKVYACEVTHQGLSSPVTKSFNRGEC
For the molecule B1, the concentration for a half-maximal effect (EC50 (read off the curve)) (in the assay with FcγRIIIa-158F-GST; in assay [1]) was about 3 nM throughout.

B2: rituximab Fc variant RTX-PS107 (antibody, human IgG1, kappa)
heavy: B1 heavy with D360G
light: B1 light
As to B2, the “EC50 (read off the curve)” value (with FcγRIIIa-158F-GST; in assay [1]) was about 3 nM each time.

B3: rituximab Fc variant RTX-PS102 (antibody)
heavy: B1 heavy with H228R, V307I
light: B1 light
Regarding B3, in assay [1], the EC50 (read off the curve) (in general, the concentration at which the effect is half-maximal) was about 3 nM.

Source of the values: US20250188185A1 (KOREA UNIVERSITY RESEARCH AND BUSINESS FOUNDATION, published 2025).
